In article PMC4490372, “Architecture of TFIIIC and its role in RNA polymerase III pre-initiation complex assembly” (Nature Communications, 2015):

Legend:
[1] = target: T1, τ131 (Tfc4), τA subunit of endogenous S. cerevisiae TFIIIC (S. cerevisiae, UniProt P33339 1-1025); test: cross-linking; XL-MS: purified endogenous TFIIIC (30 μg, 1 μg/μl) cross-linked with H12/D12 DSS to 2 mM, 40 min at 37 °C; ld-score >25; conditions: both partners purified
T1 construct: τ131 (Tfc4), subunit of S. cerevisiae TFIIIC, endogenous subunit in the purified complex; Endogenous subunit; source: endogenous, purified from S. cerevisiae strain SC2342 as part of TFIIIC (TAP tag on τ60)
T1 sequence (looked up): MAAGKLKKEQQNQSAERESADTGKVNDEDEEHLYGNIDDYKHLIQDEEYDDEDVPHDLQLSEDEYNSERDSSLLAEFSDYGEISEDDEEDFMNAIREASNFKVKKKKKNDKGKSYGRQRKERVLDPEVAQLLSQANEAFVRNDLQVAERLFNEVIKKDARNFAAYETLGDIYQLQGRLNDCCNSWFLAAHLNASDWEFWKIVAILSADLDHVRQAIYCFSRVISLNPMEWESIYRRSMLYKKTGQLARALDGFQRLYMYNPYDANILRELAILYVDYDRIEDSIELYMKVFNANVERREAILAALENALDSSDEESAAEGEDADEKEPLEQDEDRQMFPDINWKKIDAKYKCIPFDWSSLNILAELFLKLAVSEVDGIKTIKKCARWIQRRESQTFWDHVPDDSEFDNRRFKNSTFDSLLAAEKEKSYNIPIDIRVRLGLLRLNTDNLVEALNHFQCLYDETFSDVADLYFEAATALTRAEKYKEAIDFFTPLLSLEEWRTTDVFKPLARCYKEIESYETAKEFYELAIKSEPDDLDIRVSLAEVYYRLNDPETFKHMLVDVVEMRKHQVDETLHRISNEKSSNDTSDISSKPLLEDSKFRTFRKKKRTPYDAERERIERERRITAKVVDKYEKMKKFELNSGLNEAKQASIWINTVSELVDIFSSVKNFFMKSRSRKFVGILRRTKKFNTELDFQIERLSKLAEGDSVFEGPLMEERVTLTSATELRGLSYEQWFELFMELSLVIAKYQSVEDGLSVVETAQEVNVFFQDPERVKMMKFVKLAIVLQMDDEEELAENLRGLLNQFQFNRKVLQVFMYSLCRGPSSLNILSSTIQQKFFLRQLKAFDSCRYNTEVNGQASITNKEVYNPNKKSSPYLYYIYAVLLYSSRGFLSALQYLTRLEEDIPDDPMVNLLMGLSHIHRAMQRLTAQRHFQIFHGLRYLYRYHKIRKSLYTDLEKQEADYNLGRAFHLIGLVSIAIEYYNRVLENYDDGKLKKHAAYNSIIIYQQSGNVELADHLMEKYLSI

[2] = target: T2, τ138 (Tfc3), τB subunit of endogenous S. cerevisiae TFIIIC (S. cerevisiae, UniProt P34111 1-1160); test: as above; conditions: both partners purified
T2 construct: τ138 (Tfc3), subunit of S. cerevisiae TFIIIC, endogenous subunit in the purified complex; source: endogenous, purified from S. cerevisiae strain SC2342 as part of TFIIIC (TAP tag on τ60)
T2 sequence (looked up): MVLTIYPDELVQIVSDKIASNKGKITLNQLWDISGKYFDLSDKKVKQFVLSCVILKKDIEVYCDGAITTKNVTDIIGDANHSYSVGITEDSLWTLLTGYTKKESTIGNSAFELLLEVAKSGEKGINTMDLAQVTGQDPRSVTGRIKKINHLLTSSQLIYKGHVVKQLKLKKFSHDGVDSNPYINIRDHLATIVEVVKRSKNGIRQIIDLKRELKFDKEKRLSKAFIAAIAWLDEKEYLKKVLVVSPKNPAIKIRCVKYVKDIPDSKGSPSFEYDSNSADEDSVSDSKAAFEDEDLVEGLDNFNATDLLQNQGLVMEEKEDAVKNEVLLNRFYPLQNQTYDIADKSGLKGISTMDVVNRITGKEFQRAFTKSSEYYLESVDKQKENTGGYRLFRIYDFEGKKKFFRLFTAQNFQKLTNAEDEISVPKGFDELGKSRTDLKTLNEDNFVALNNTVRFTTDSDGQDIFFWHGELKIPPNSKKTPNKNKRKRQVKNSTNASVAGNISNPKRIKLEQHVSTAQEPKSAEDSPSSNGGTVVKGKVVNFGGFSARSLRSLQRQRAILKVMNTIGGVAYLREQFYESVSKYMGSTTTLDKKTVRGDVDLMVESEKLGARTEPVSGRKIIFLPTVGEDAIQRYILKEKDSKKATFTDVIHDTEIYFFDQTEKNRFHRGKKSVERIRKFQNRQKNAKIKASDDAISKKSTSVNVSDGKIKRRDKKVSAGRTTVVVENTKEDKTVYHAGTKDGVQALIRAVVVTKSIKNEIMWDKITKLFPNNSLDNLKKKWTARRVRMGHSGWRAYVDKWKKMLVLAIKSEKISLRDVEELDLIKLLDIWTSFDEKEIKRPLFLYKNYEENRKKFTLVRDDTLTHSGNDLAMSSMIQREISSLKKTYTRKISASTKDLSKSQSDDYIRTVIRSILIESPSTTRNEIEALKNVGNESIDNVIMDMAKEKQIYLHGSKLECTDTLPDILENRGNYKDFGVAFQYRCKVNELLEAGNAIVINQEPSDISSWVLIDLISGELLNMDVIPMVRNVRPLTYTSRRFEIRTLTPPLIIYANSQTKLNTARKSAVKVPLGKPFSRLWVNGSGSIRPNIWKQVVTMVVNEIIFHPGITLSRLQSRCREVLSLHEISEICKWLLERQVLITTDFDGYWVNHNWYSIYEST

B1: τ95 (Tfc1), τA subunit of endogenous S. cerevisiae TFIIIC (natural protein, UniProt P32367 1-649, looked up)
chain: MPVEEPLATLSSIPDSSADQAPPLIADEFTLDLPRIPSLELPLNVSTKHSSIQKAIKMCGGIEKVKEAFKEHGPIESQHGLQLYLNDDTDSDGSKSYFNEHPVIGKRVPFRDESVILKVTMPKGTLSKNNNSVKDSIKSLKDSNKLRVTPVSIVDNTIKFREMSDFQIKLDNVPSAREFKSSFGSLEWNNFKSFVNSVPDNDSQPQENIGNLILDRSVKIPSTDFQLPPPPKLSMVGFPLLYKYKANPFAKKKKNGVTEVKGTYIKNYQLFVHDLSDKTVIPSQAHEQVLYDFEVAKKTKVYPGTKSDSKFYESLEECLKILRELFARRPIWVKRHLDGIVPKKIHHTMKIALALISYRFTMGPWRNTYIKFGIDPRSSVEYAQYQTEYFKIERKLLSSPIVKKNVPKPPPLVFESDTPGGIDSRFKFDGKRIPWYLMLQIDLLIGEPNIAEVFHNVEYLDKANELTGWFKELDLVKIRRIVKYELGCMVQGNYEYNKYKLKYFKTMLFVKESMVPENKNSEEGMGVNTNKDADGDINMDAGSQMSSNAIEEDKGIAAGDDFDDNGAITEEPDDAALENEEMDTDQNLKVPASIDDDVDDVDADEEEQESFDVKTASFQDIINKIAKLDPKTAETMKSELKGFVDEVDL
notes: τ95 (Tfc1), subunit of S. cerevisiae TFIIIC, endogenous subunit in the purified complex; source: endogenous, purified from S. cerevisiae strain SC2342 as part of TFIIIC (TAP tag on τ60)
binding result [1]: binds
binding result [2]: binds
